Consider seven molecules from article PMC3201880 (Nucleic Acids Research, 2011).

Series [1] addresses T1, TnpA-His6 (IS608 transposase) (Helicobacter pylori (IS608), UniProt Q933Z0 1-155).
T1 sequence: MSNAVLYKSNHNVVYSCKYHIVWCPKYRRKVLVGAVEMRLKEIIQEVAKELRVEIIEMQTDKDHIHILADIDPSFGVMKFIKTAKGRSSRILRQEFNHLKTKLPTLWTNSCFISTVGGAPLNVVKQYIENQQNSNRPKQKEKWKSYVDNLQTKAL
As to the kind of experiment: EMSA. For orientation: Mobility shift assays separate free from complexed probe on a gel.

The target in series [2] is T1, TnpA-His6 (IS608 transposase). Kind of series: EMSA. This is another data set of the same source.
Series [3] shares this target. Kind of series: EMSA. The source holds these as a separate data set.
The series “cross-linking” deals with the molecule itself. As to the kind of experiment: cross-linking.

Like-named read-outs stand apart in the source and are kept apart here.

For GCTTTAGCTAGAATCCCCTAGCTTTAGCTATGGGGAGTATGTCAATTCG (ssDNA) [RE49], the binding result in series [1] is listed as “binds”.

B1: RE56 (ssDNA)
DNA: CTCATGCTTTAGCTAGAATCCCCTAGCTTTAGCTATGGGGAGTATGTCAACAAATT
Consider B1, for which the binding result in series [2] was “binds”.

As to GCTTTAGCTAGAATCCCCTAGCTTTAGCTATGGGGAGTATGTCAA (ssDNA) [RE45_pc (precleaved)], the binding result in series [2] was “binds”.

B2: LE80 (ssDNA)
DNA: CGCTAGTGCAAAAATTACCAAAACTAACGCCTTAAAGCCCCTAGCTTTTAGCTATGGGGATACAAGGCGAAACGCCTTTA
Turning to B2, the binding result in series [3] is on record as “binds”.

B3: TnpA-His6 (transposase of IS608) (enzyme, Helicobacter pylori, UniProt Q933Z0 1-155, looked up)
chain: MSNAVLYKSNHNVVYSCKYHIVWCPKYRRKVLVGAVEMRLKEIIQEVAKELRVEIIEMQTDKDHIHILADIDPSFGVMKFIKTAKGRSSRILRQEFNHLKTKLPTLWTNSCFISTVGGAPLNVVKQYIENQQNSNRPKQKEKWKSYVDNLQTKAL
In general, stoichiometry N refers to the number of molecules, sites or subunits per partner or assembly. As for B3, the “stoichiometry N” value in the series “cross-linking” turned out to be 2.

For the molecule GAATCCCCTAGCTTTAGCTATGGGGAGTATGTCAACAAATTTGCC (ssDNA) [RE45], in series [2], the binding result is “binds”.

B4: RE70 (ssDNA)
DNA: TTCCTCATGCTTTAGCTAGAATCCCCTAGCTTTAGCTATGGGGAGTATGTCAACAAATTTGCCTAATGAC
For the molecule B4, in series [3], the binding result is given as “binds”.
